Experimental findings from patent US20190016771A1 (Hoffmann-La Roche, published 2019) are described below.

The target of assay [1] is T1, human OX40 (CD134) on the cell surface (human, UniProt P43489 29-277).
T1 construct: whole, on cells; also called hOx40
T1 sequence (looked up): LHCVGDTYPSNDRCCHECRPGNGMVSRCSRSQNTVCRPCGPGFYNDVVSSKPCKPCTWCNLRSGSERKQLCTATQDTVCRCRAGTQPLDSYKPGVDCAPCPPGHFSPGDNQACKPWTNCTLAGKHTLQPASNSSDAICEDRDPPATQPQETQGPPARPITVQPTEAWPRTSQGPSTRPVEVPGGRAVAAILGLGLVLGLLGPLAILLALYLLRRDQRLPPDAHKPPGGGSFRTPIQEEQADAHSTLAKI
Nature of the assay: flow cytometry on activated human CD4+ T cells (OX40 positive); activated OX40 positive CD4+ T cells. On the procedure: (§1) PBMCs were used directly after isolation (binding on resting human PBMCs) or they were stimulated to receive a strong human Ox40 expression on the cell surface of T cells (binding on activated human PBMCs). Therefore naïve PBMCs were cultured for three days in T cell medium supplied with 200 U/mL Proleukin (Novartis) and […] PHA-L (Sigma-Aldrich, L2769-10) in 6-well tissue culture plate at 37° C. and 5% CO₂.
(§2) Cells were stained for 120 minutes at 4° C. in the dark in 50 μL/well 4° C. cold FACS buffer containing titrated anti-Ox40 antibody constructs. After three times washing with excess FACS buffer, cells were stained for 1 h at 4° C. in the dark in 25 μL/well 4° C. cold FACS buffer containing a mixture of fluorescently labeled anti-human CD4 (clone OKT4, mouse IgG1 k, BioLegend, Cat.-No. 317428), anti-human CD8 (clone RPa-T8, mouse IgG1k, BD Pharmingen, Cat.-No. 555368) and Fluorescein isothiocyanate (FITC)-conjugated AffiniPure anti-human IgG F(ab′)2-fragment-specific goat IgG F(ab′)₂ fragment (Jackson ImmunoResearch, Cat.-No. 109-096-097). Plates were finally resuspended in 90 μL/well FACS-buffer containing 0.2 μg/mL DAPI (Santa Cruz Biotec, Cat. No. Sc-3598) and acquired the same day using 5-laser LSR-Fortessa (BD Bioscience with DIVA software).

Assay [2] addresses T1, human OX40 (CD134) on the cell surface. Description: flow cytometry on activated human CD8+ T cells (OX40 positive); activated OX40 positive CD8+ T cells. On the procedure: as §1, §2
Assay [3] deals with T2, human fibroblast activation protein (FAP) on the cell surface (human, UniProt Q12884 1-760).
T2 construct: also called huFAP; NIH/3T3-huFAP clone 39 cells
T2 sequence: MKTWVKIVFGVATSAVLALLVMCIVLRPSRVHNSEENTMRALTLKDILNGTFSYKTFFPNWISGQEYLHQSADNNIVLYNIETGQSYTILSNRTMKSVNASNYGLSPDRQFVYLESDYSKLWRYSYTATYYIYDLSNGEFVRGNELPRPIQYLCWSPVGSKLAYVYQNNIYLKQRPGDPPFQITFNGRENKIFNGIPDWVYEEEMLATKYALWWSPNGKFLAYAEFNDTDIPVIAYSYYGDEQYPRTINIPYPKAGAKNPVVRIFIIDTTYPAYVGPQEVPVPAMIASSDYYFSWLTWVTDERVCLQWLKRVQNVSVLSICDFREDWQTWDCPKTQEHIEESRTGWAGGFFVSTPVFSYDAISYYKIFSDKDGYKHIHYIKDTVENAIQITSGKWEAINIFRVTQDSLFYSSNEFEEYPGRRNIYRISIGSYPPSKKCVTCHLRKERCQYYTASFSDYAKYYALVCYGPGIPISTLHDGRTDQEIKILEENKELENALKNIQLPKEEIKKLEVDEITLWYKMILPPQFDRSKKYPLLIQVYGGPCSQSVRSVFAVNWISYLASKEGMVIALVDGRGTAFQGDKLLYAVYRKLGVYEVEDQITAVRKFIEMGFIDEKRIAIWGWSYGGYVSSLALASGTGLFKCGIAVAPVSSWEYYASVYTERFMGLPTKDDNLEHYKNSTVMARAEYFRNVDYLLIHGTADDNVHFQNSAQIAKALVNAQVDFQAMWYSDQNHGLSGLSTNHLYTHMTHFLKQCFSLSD
Nature of the assay: flow cytometry on WM-266-4 cells, FITC anti-human IgG F(ab')2 detection. The procedure: Cells were stained for 120 minutes at 4° C. in the dark in 50 μL/well 4° C. cold FACS buffer (DPBS (Gibco by Life Technologies, Cat. No. 14190 326) w/ BSA (0.1% v/w, Sigma-Aldrich, Cat. No. A9418) containing titrated huCMP trimeric OX40 ligand-containing antigen binding molecules. After three times washing with excess FACS buffer, cells were stained for 60 minutes at 4° C. in the dark in 25 μL/well 4° C. cold FACS buffer containing Fluorescein isothiocyanate (FITC)-conjugated AffiniPure anti-human IgG F(ab′)₂-fragment-specific goat IgG F(ab′)₂ fragment (Jackson ImmunoResearch, Cat.-No. 109-096-097).
Plates were finally resuspended in 90 μL/well FACS-buffer containing 0.2 μg/mL DAPI (Santa Cruz Biotec, Cat. No. Sc-3598) and acquired the same day using 5-laser LSR-Fortessa (BD Bioscience with DIVA software).
On the technique in general: A flow cytometer gives signals particle by particle.

B1: FAP(28H1)-targeted human CMP trimeric OX40L-containing antigen binding molecule (other)
chain: EVQLLESGGGLVQPGGSLRLSCAASGFTFSSHAMSWVRQAPGKGLEWVSAIWASGEQYYADSVKGRFTISRDNSKNTLYLQMNSLRAEDTAVYYCAKGWLGNFDYWGQGTLVTVSSASTKGPSVFPLAPSSKSTSGGTAALGCLVKDYFPEPVTVSWNSGALTSGVHTFPAVLQSSGLYSLSSVVTVPSSSLGTQTYICNVNHKPSNTKVDKKVEPKSCDGGGGSGGGGSEEDPCACESLVKFQAKVEGLLQALTRKLEAVSKRLAILENTVVSGGGGSGGGGSGGGGSGGGGSQVSHRYPRIQSIKVQFTEYKKEKGFILTSQKEDEIMKVQDNSVIINCDGFYLISLKGYFSQEVDISLHYQKDEEPLFQLKKVRSVNSLMVASLTYKDKVYLNVTTDNTSLDDFHVNGGELILIHQNPGEFCVL
light: EIVLTQSPGTLSLSPGERATLSCRASQSVSRSYLAWYQQKPGQAPRLLIIGASTRATGIPDRFSGSGSGTDFTLTISRLEPEDFAVYYCQQGQVIPPTFGQGTKVEIKRTVAAPSVFIFPPSDEQLKSGTASVVCLLNNFYPREAKVQWKVDNALQSGNSQESVTEQDSKDSTYSLSSTLTLSKADYEKHKVYACEVTHQGLSSPVTKSFNRGEC
notes: also called trimeric FAP-huCMP-OX40L
B1: the EC50 (usually the concentration at which the effect is half-maximal) in assay [1] is 10.2 nM; in assay [2], 3 nM; in assay [3], 17.3 nM.
